In paper PMC4437028 (2015):
Each block holds one molecule with its values, some of them ahead of it.

Columns and labels:
[1] = molecular target: mouse Slitrk2 LRR1 (first leucine-rich repeat of Slit and Trk-like family member 2), wild type (UniProt Q810C0); assay: SPR equilibrium analysis; conditions: point at 4 µM PTPδ Ig1-Fn1 (highest concentration); Slitrk2 LRR1 immobilized on a CM5 sensor tip; parent: est. 600; read off a plot
[2] = molecular target: T1, mouse Slitrk2 LRR1 (first leucine-rich repeat of Slit and Trk-like family member 2), wild type (mouse, UniProt Q810C0 1-266, N-linked glycans); assay: SPR
T1 chain: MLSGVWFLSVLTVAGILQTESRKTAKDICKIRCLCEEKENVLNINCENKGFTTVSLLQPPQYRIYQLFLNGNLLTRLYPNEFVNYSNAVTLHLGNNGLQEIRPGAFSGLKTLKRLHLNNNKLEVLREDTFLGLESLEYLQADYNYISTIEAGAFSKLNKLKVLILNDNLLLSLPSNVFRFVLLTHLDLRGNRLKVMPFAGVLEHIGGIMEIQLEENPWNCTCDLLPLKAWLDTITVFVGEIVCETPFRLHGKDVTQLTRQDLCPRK

[3] = molecular target: T2, mouse Slitrk2 LRR1 (first leucine-rich repeat of Slit and Trk-like family member 2), wild type, Q810C0; assay: SPR equilibrium analysis; conditions: chain shown with the change, Slitrk2 LRR1 immobilized on a CM5 sensor tip
T2 chain: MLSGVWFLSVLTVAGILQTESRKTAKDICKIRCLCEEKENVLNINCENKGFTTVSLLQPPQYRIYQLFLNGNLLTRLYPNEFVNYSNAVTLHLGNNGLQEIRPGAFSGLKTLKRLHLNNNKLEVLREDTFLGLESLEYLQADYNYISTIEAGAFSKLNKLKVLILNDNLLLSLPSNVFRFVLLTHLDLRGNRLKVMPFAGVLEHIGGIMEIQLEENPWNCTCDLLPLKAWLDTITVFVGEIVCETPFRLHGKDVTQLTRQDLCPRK

[4] = molecular target: mouse Slitrk2 LRR1 (first leucine-rich repeat of Slit and Trk-like family member 2), wild type (mouse) (UniProt Q810C0); assay: crystal structure; Slitrk2 LRR1 and PTPδ Ig1-Fn1 mixed at a molar ratio of 1:1, treated with neuraminidase; sitting drop vapor diffusion, 293 K, 15% PEG4000, 0.1 M sodium acetate, 0.1 M MES (pH 6.0); 3.35 Å
mouse Slitrk2 LRR1 R114A = molecular target: T3, mouse Slitrk2 LRR1 R114A (mouse, UniProt Q810C0 1-266, R114A); assay: SPR
T3 sequence: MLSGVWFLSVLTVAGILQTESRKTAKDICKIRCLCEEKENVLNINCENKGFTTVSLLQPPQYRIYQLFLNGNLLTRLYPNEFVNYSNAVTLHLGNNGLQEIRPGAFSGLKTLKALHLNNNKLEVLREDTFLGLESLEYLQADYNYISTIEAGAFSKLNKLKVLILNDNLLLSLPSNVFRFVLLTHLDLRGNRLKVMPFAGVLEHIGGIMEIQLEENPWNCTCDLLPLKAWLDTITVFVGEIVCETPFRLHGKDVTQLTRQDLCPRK

[5] = molecular target: T4, mouse Slitrk2 LRR1 F247A H250A (mouse, UniProt Q810C0 1-266, F247A | H250A); assay: SPR
T4 sequence: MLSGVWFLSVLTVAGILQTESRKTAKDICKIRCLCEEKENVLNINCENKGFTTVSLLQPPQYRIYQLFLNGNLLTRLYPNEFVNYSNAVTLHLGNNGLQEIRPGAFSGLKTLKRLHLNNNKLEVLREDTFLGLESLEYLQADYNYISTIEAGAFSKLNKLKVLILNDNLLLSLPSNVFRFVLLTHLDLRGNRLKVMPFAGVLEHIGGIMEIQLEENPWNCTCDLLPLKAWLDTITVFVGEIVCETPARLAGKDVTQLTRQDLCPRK

Molecule: mouse PTPδ Ig1-Fn1 (residues 28-418), splice variant meA9B+ (from UniProt Q64487) R236E
- response (Response unit) [1]: 97

B3: mouse PTPδ Ig1-Fn1 (residues 28-418), splice variant meA9B+ (domain or fragment)
chain: ETPPRFTRTPVDQTGVSGGVASFICQATGDPRPKIVWNKKGKKVSNQRFEVIEFDDGSGSVLRIQPLRTPRDEAIYECVASNNVGEISVSTRLTVLREDQIPRGFPTIDMGPQLKVVERTRTATMLCAASGNPDPEITWFKDFLPVDTSNNNGRIKQLRSESIGGTPIRGALQIEQSEESDQGKYECVATNSAGTRYSAPANLYVRELREVRRVPPRFSIPPTNHEIMPGGSVNITCVAVGSPMPYVKWMLGAEDLTPEDDMPIGRNVLELNDVRQSANYTCVAMSTLGVIEAIAQITVKALPKPPGTPVVTESTATSITLTWDSGNPEPVSYYIIQHKPKNSEEPYKEIDGIATTRYSVAGLSPYSDYEFRVVAVNNIGRGPASEPVLTQ
modifications: N-linked glycans
- stoichiometry N [4]: 1
- Kd (mouse Slitrk2 LRR1 R114A): 257 nM
- Kd [2]: 356 nM
- Kd [5]: 580 nM

Now from value to molecule:

- Kd [2]: 451 nM
B1: mouse PTPδ Ig1-Fn1, splice variant meA-B+ (domain or fragment)
chain: ETPPRFTRTPVDQTGVSGGVASFICQATGDPRPKIVWNKKGKKVSNQRFEVIEFDDGSGSVLRIQPLRTPRDEAIYECVASNNVGEISVSTRLTVLREDQIPRGFPTIDMGPQLKVVERTRTATMLCAASGNPDPEITWFKDFLPVDTSNNNGRIKQLRSGALQIEQSEESDQGKYECVATNSAGTRYSAPANLYVRELREVRRVPPRFSIPPTNHEIMPGGSVNITCVAVGSPMPYVKWMLGAEDLTPEDDMPIGRNVLELNDVRQSANYTCVAMSTLGVIEAIAQITVKALPKPPGTPVVTESTATSITLTWDSGNPEPVSYYIIQHKPKNSEEPYKEIDGIATTRYSVAGLSPYSDYEFRVVAVNNIGRGPASEPVLTQ

- Kd ([3]; PTPδ Ig1-Fn1 injected, parent: 355.5 ± 6.5 nM): 312 nM
- response (Response unit) ([3]; point at 4 µM PTPδ Ig1-Fn1 (highest concentration), parent: est. 600, read off a …): 500
B2: mouse PTPδ Ig1-Fn1 (residues 28-418), splice variant meA9B+, Q64487 Y273A (protein)
chain: ETPPRFTRTPVDQTGVSGGVASFICQATGDPRPKIVWNKKGKKVSNQRFEVIEFDDGSGSVLRIQPLRTPRDEAIYECVASNNVGEISVSTRLTVLREDQIPRGFPTIDMGPQLKVVERTRTATMLCAASGNPDPEITWFKDFLPVDTSNNNGRIKQLRSESIGGTPIRGALQIEQSEESDQGKYECVATNSAGTRYSAPANLYVRELREVRRVPPRFSIPPTNHEIMPGGSVNITCVAVGSPMPAVKWMLGAEDLTPEDDMPIGRNVLELNDVRQSANYTCVAMSTLGVIEAIAQITVKALPKPPGTPVVTESTATSITLTWDSGNPEPVSYYIIQHKPKNSEEPYKEIDGIATTRYSVAGLSPYSDYEFRVVAVNNIGRGPASEPVLTQ
